According to paper PMC5523955:

Molecular target: NCP^H2AK15ub (nucleosome core particle with linked H2A-H2B enzymatically ubiquitylated at H2A Lys15) (human) (UniProt P0CG47)
Experiment: ITC

With “RAD18 (aa 198-240) (from UniProt Q9NS91 198-240) (domain or fragment)” the Kd was 0.0252 µM.
